Like-named read-outs stand apart in the source and are kept apart here.
Assays:
[1] = target: PD-1 on PD-1 Effector Cells (UniProt Q15116); test: cell-based or functional assay
[2] = target: IL-2/IL-15Rβγ on kit225 cells (UniProt P14784); test: cell-based or functional assay
[3] = target: IL-2/IL-15Rβγ on kit225 cells (UniProt P14784); test: cell-based or functional assay; remark: listed apart in the source
[4] = target: FcγRIIIa F158 (human) (UniProt P08637); test: SPR; ratio of affinity (1/Kd) for FcγRIIIa F158 to affinity for FcγRIIb
[5] = target: FcγRIIIa V158 (human) (UniProt P08637); test: SPR; ratio of affinity (1/Kd) for FcγRIIIa V158 to affinity for FcγRIIb

Sequence of IL-2/IL-15Rβγ on kit225 cells (P14784 27-551 limits assumed, chain 1 of 2): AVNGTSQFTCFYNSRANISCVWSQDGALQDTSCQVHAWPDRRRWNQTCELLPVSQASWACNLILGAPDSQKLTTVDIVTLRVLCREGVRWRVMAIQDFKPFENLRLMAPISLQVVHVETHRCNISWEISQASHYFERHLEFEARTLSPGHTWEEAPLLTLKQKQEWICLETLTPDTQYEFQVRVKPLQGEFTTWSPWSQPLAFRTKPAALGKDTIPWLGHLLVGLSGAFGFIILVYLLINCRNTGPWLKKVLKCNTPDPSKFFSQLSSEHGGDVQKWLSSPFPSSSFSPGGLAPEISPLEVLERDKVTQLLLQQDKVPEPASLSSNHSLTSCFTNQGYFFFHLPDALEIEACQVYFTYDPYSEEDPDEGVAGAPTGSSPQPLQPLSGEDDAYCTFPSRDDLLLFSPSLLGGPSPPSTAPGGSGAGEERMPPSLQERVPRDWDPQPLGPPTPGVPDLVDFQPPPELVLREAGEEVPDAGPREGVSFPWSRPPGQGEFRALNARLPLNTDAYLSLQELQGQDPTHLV
Sequence of IL-2/IL-15Rβγ on kit225 cells (P31785 23-369 limits assumed, chain 2 of 2, further chain): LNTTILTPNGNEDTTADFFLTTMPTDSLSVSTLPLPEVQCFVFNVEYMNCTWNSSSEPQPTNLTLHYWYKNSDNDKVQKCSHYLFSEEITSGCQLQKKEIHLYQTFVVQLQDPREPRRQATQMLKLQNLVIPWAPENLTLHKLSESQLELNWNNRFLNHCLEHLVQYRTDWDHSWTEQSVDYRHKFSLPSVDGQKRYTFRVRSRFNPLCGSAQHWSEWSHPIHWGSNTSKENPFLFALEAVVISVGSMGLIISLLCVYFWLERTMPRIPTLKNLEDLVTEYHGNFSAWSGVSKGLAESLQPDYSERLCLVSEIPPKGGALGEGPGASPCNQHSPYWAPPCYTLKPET
Sequence of PD-1 on PD-1 Effector Cells (Q15116 25-288 limits assumed): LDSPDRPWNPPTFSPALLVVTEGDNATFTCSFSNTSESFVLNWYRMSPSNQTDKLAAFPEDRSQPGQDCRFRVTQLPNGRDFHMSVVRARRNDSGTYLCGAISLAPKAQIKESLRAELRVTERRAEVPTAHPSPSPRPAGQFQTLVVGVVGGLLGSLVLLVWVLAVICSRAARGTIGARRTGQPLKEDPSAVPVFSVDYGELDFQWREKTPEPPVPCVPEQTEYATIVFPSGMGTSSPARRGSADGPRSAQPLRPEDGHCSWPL

## PD1-IL2v
[1]
  EC50, PD-1/PD-L1 Blockade Bioassay: 4.57 nM
  Relative potency vs Keytruda: 38.6%
[2]
  EC50 kit225 cells: 3.94 nM
  EC50 on kit225 cells: 3.02 nM
  Relative potency to SOT201: 455%
[3]
  EC50 kit225 cells: 3.02 nM
  Relative potency to SOT101: 1.19%

## SOT201 wt (with RLI2AQ)
[3]
  EC50 kit225 cells: 0.249 nM
  Relative potency to SOT101: 14.4%

## Zolbetuximab (antibody)
[4]
  A/I (F158): 32.9
[5]
  A/I (V158): 161

Reference: US20260115255A1
